Results on 1 molecule are retold here after PMC7611088 (Nature methods, 2021).

In the test the target is MbNbF3^c7HopQ (H. pylori). The test is described as follows: BLI. A general note: In BLI a coated tip is dipped into the sample, and binding shifts an interference pattern.

B1: membrane scaffold protein MSP1D1 (other)
chain: STFSKLREQLGPVTQEFWDNLEKETEGLRQEMSKDLEEVKAKVQPYLDDFQKKWQEEMELYRQKVEPLRAELQEGARQKLHELQEKLSPLGEEMRDRARAHVDALRTHLAPYSDELRQRLAARLEALKENGGARLAEYHAKATEHLSTLSEKAKPALEDLRQGLLPVLESFKVSFLSALEEYTKKLNTQ
modifications: biotinylated with EZ-link NHS-Biotin (biotin/antigen ratio 2 - 2.5) for BLI only
With B1, the binding result was “binds”.
